Measured values published in the DeepSol protein solubility set.

test: soluble on expression in E. coli; label from the status in PepcDB or PDB records

| Sequence | soluble on expression in E. coli |
| --- | --- |
| GGYSSEQQEDLEAIAPAVVQALQRKKAEEALRLSNIYNRSLIESSLDPLVTIGRDGKITDVNCATEQVTGYPRNDLIKTDFSDYFTEPENARAGYKQVFTDGEVRDYPLEIQHKDGHITPVLYNASVYRDEN | not soluble |
| GPGSMPKEPILHAELREWLEEYRRHRAFNPIAWIEEKCTKLNEYMRNNKLRGCVTNVSGGVDSAVVLSLCSRAQRMEGSPIVRNVGICQPICSSAWALERGRENIRAAGAEEVVVDQTDIHRQLSLSVEAAVGIDGKDFARGQLRSYMRAPVGYYVAQLCSQSGTPTIVMGTGNMDEDGYLGYFCKAGDGVVDVQLISDLHKSEVFKVARELGVPENTLQAAPSADLWDGQTDEEELGFPYDFVELYTGYFLKLNNGEREMKKKSLSAEARHQFEAYMKSCEETHCRNAHKLNGIVNL | soluble |
| MGHHHHHHSHMHDSANCELPLLTPCSKAVMSQALKATFSGFKKEQRRLGIPKNPWLWSEQQVCQWLLWATNEFSLVNVNLQRFGMNGQMLCNLGKERFLELAPDFVGDILWEHLEQMIKENQEKTE | not soluble |
| MGSDKIHHHHHHMLASSDLPYRKMITWAGFYQDYYLVDINTGRKLPLLTQQPSDSDPSLSGDGKFVVYYQQGHVYLYDIAQGRRTNLTQSLKVSFADEDHDYPSNAPGYGFGPWLKDDAGILVYDKFDVWQFNTASKTGFALTAGQGRAQKIQYRLEGLVDNPDEPTTLAYNATVLLHGYSDKTKADGFYQATLGEAGVKTLMEGEYKLTVLGRSKDTDTLVFSKERFDLFPDLYTASYQAPQQAVKQTDLDKQRQAFNWSQAELVHWTNGDGKPLDGVLIKPTNYQAGERYPVLVYYYELMTDRLHAFPQMKVNHRPNFAWYVNNGYALFLPDIRFDIGYPGASSVQTLTSGVQKLIDMGVADANAIGLQGHSWSGYQTAFAITQTKMFKAAVAGAPVANMTSAYNGIRHGTGIARQFQYETGQSRIGASLFAAPQKYIENSPVFYADRIKTPLMIMFGDKDDAVPWEQGVEMYLAMRRAGKDVVFLQYEDEPHHLKKYPNKLDYSIRMMEYFDHYLKGKPAPAWLSQGEAYVEYKADDE | not soluble |
| MNAEERFDRITRLTRRIFALPICVVTLVDASRQWFKSCQGLEVTETSRDISFCGHAINHDGIFIVNDAQMDPRFHDNPLVTQSPHIRFYAGYPLTIRGEYRVGTLCLIGNEPREFSADDIETLTDLGQMVEAELLSISLNTLDPLEHHHHHH | not soluble |
| MKLEIFSWWAGDEGPALEALIRLYKQKYPGVEVINATVTGGAGVNARAVLKTRMLGGDPPDTFQVHAGMELIGTWVVANRMEDLSALFRQEGWLQAFPKGLIDLISYKGGIWSVPVNIHRSNVMWYLPAKLKGWGVNPPRTWDKFLATCQTLKQKGLEAPLALGENWTQQHLWESVALAVLGPDDWNNLWNGKLKFTDPKAVRAWEVFGRVLDCANKDAAGLSWQQAVDRVVQGKAAFNIMGDWAAGYMTTTLKLKPGTDFAWAPSPGTQGVFMMLSDSFGLPKGAKNRQNAINWLRLVGSKEGQDTSNPLKGSIAARLDSDPSKYNAYGQSAMRDWRSNRIVGSLVHGAVAPESFMSQFGTVMEIFLQTRNPQAAANAAQAIADQVGLGRLGQHHHHHH | soluble |
| MLTMRICLRATYTQKEYKWESTVNEQISAASLYDRVARVIPKAEWMGFQDDVEAILELKRKRNAVILAHNYQTPEIFHGVADIVGDSLALARKAMEVEADVIVLAGVHFMAETAKLLNPEKTVLIPDMAAGCSLADSITPEDIALLRKAYPGVPVVTYVNTSAAVKAASDICCTSGNARQVVESLGVPRVLMLPDEYLAKNVAKETSVELIAWRGHCEVHELFTADDIRELRESHPGVIVLAHPECPPEVVDAADFSGSTAVMSDYVGRERPARVVLLTECSMSDNVAVHHPDVEFIRPCNLCPHMKRITLGNIRTALEENRHEVTVDPAIAGAARRAVERMLQIMAGDPLEHHHHHH | not soluble |
| MFNLRPAATLVALAAALSSLPALAEEARYNQISLRAEVNQEVQRDLMLVTLYTEAQDSDPARLAAQITETLNKALGQARQVKDVKIRQGSRNSYPVYDDKGQKITGWRERAELRLESADFAVLSKLTGELLTDLKMGGMDFSISPSTRKTSEDALLKDAVTAFKARAQLVTEALGGKGYKLVNLNLNTSGYPQPYLRAPVMMMAKSSRDESAPTPDVEAGTSQVSVAADGVIEVAIPLEHHHHHH | soluble |
| MDDREDLVYQAKLAEQAERYDEMVESMKKVAGMDVELTVEERNLLSVAYKNVIGARRASWRIISSIEQKEENKGGEDKLKMIREYRQMVETELKLICCDILDVLDKHLIPAANTGESKVFYYKMKGDYHRYLAEFATGNDRKEAAENSLVAYKAASDIAMTELPPTHPIRLGLALNFSVFYYEILNSPDRACRLAKAAFDDAIAELDTLSEESYKDSTLIMQLLRDNLTLWTSDMQGDGEEQNKEALQDVEDENQ | soluble |
| MGGEQRETNLSIRGKAYIVGAFEHPLRYAPAHSVAQLHAECALGALADAGLTLADVDGYFCAGDAGASPATLVDHMNLRLRHVDGTEIGGGSYLALIGHAAQAIASGKCRVALITLAGKPRSAGQATGTEARQPGPDRPASAWEAPYRWTVAGIYGNFARRHMHEYGTTSEQLAWVKVAASHHAQHNEHALLRKVYSVEDVLASPMIADPLHRLDCCVITDGGGALVLAAPEVARSLARPRIRVLGCGETIRTNNGGHHADMLHTGAQRSGPAAFAEAGVTPADIKYASVYDNFTIMVIMQLEDLGFCEKGAGGRFVADGNLISGTGRLPWNTDGGGLCNNHPANRGGITKAIEAVRQLRGEAHPSVQVPNCDLALAAGPGLVFGVGHSHATVILERE | not soluble |
| MDPNQPVKFTEFMPDSGGIRTKFIVKGSNFGEDKSQVKVYFKDEVGNEREALVLGVKPDVIYAQVPKQAGGESHVRVEIAGKEAELSNAEKTFKYIVTSSVSTVVGKAKEGGNKDGTLGETTFNTPRYVAVDNDDNVFIFDSDGRTRLSSIEQNKTITLLDGMVIDQPLFIDKEKKQLFGPCDNANFGCFLFDANVSWVADKMGQLLANGGWMHSVVLDPVDSTFVIYRQNTGQLWTQPFDKNRRTLNPNKAKRIGTLYNTGSNGLCAYNPVDKYVYCVLHSKSAVYRFKLTRDADGWPALDGDIDEYIPGAGAGFRDGDVQEAQFKEPRGIAIDKEGNLYIADVGNNRIRKVDTKLNVVTTIAGSGAAGYKDGDPLEAQFNQPWGVYLDKNEFLYIADQNNHCIRKLAIELEHHHHHH | not soluble |
| KRGTDLGRPINATFDFFSRLFSKRKNVHMTFFNSSTPLDVNYTPNQQEIDTILDKISRSGYESLTKEEKQKLFKASQK | not soluble |
| MTITSLDGYRWLKNDIIRGNFQPDEKLRMSLLTSRYALGVGPLREALSQLVAERLVTVVNQKGYRVASMSEQELLDIFDARANMEAMLVSLAIARGGDEWEADVLAKAHLLSKLEACDASEKMLDEWDLRHQAFHTAIVAGCGSHYLLQMRERLFDLAARYRFIWLRRTVLSVEMLEDKHDQHQTLTAAVLARDTARASELMRQHLLTPIPIIQQAMAGN | soluble |
| MKQTPPLISFITICYNGLDDTCMLIESLRDTISSVSYEIIVVDNASRQDEASLIQERYPFVRTLRSEKNLGFSGGNNLGIQIAQGKYLFLINNDTYLTEDGLPALIERLESDPRIGAVSPKIRFAFPPQSIQFAGYTKLSRYTMRNKALGMGCPDDGTFDTPRPSAYLHGAALMLKREVIWKAGLMPEIYFLYYEELDWCTSMTRAGYQLWYEPRCTIFHKESQSTGRQSPLRTFYMMRNRMLYAWRNLPGMERCLAIAYQMLIVAPKDSLCFVLKGEPKLAKAVWHGVKGFWKLC | not soluble |
| MVQEQMKLTGTLEGHTGWVTQIATYTRNDKTTVLSSSRDKTILVWDVDSVAPVDEGPIGRPVRSLTGHNHFVSDVVISSDGQFALSGSWDKTLRLWDLNQGVSTRQFISHTKDVLSVAFSADNRQIVSGSRDKSIKLWNTLAQCKYTITDDCHTDWVSTVRFSPSNRDPVIVSAGWDKVVKVWNLGNCRLKTNHIGHTGYVNTVTVSPDGSLCASGGKDGQAMLWDLNEGKHLYTLPGNDVINAMSFSPNRYWLCAAVGSSIKIWDLEDKKEIEELKPEIASSGSSRGSSPQCISLAWSQDGQTLFAGYTDNIIRVYQVSIRASN | not soluble |
| MGSDKIHHHHHHMTHLKIFLLLIVCALSVLDGKAQTGIALTDELNGKRIGVIGDSYVRNHKEPFENTWHYKFAKKHGMEYFNYGKNGNSIAYSSPRWGKAMYLRYAEMADSLDYVIVIGGHNDAFKLDSIGGIDNFKDKMEILCKGLVEKYPTAKIFFFTRWNCKNFKGSDSEKVVDAMIEVCGNYSIPIFDCARKGSIYADNDTFRRIYFQKSKNNTDTAHLNSKGHDRFLKVAESFLLQY | not soluble |
| MSLKTGRALRIAVLVSGRLNLWFSSSIIEGLNEVFHDEGYDISIYQMSSTEERSEFFDMLPVRRNVDAVIVISFDIASNEIRQLRSVDVPIIGINSSLPEERGFNAAVRIDDKQGSELAARHLMMLGHRDIVYIRSDREVTLHFSVQGRYESFMACCQANGVEPRVLVTDAGRNRISKVVTQLLSLDHMPTAIACQEDGIAVPLLFQLERNGFTVPNDISIIGYDDSVYARDLGLTTIRQTPVEMAREAARMTLALIEKQPLDEPFKTFPAQLIVRSTTARLHSEGHHHHHH | soluble |
| MWDSENIEELSLVIGIGLDKPDDENLELTQQILVPKIISAKEGSSSDPTQLSITKGKTVHQMMRTSALKHKPTFSQHLRLILLSKSVIADQIGMDAIINQFVRDNGTRRSSYVFITNGRTKDIFNMNDEGEPASNVIYDLTENNKVTIRTMEPVTLGEISEHLTSDDSFLIPHVGKENGKLAINGASIIKNKLWHRDLTPIEVQNISLFSGTVEGGVIDLKRDGHLFSYEVYSSNRKIKTAYKDGKFKFTVTRNIEGRLSEDWNPNEDSFKDSYIKSIEKTVEKRVHETVTSFITEKLQKEIKADVTGLGNEVRIHYPQKWKKISRKWDDDYFSNAEIDYRVNVIVRDFGTKGANKLEHHHHHH | not soluble |
| MLPDKGWLVEARRVPSPHYDCRPDDEKPSLLVVHNISLPPGEFGGPWIDALFTGTIDPDAHPFFAEIAHLRVSAHCLIRRDGEIVQYVPFDKRAWHAGVSNYQGRERCNDFSIGIELEGTDTLAYTDAQYQQLAAVTRTLIASYPAIADNMTGHCNITPDRKTDPGPAFDWPRFRALVALSSHKEMT | not soluble |
| MRDHRPTATDELIQASKLKQIQEHAKAILLINRQLQDILPKGLKTQVRAANVRGGNLVLEAASAALKMKVDYERLHILTQLRQNGFGHLISIEVRVNPELYRQSKITSEDARAANPRPPLSEHAAHVLLAIADQASDKVKKRLQSLARLAKANQKDD | not soluble |
| MEQLTVQGLVRLMGAGANLVCVVTDNERRTEAIVGQATARLKGAGSPLVWTCTDGFTRDGTVVPGTVDPVAALDHALAHPAPLMTLFKDLSWFWSDNPYVIRKLKEFAVRARGKAAVVLARDESVPAELREDIVVLGQGLPGIGEITAFLGQLKEREPVLAAACAGHPGLMDHLVVAAQGLDLVDIERGVRALRNVPEAAGHEMVRSLFETKQAVIRRSGIMEFVANDTAPEQVGGMENLKAWMERREQAFGLESIASGAALPKGILMMGIAGCGKSLFVKAIAARWRLPLIRLDMAAVYDGSFGTPESSLRKAFRTAEAVAPCVLWIDEIESGISVQGFKAEGGPASRLLGSFLTWMQEKKAPVFVAATANAIEMLPAEIIRKGRFDEVFYVGLPDAGAREDIFRIHLERQKADSARFDVPLLAGSTKGFSGAEIEQAVLSAAFEARADRRTLTQQDVIVAVSRTVPLSVTMAEQIKKIEAWAFKRAVPAAGKF | not soluble |
| MGSSHHHHHHSSGLVPRGSHMALGSGVVPFENLQIEEGIITDAEVARFDNIRQGLDFGYGPDPLAFVRWHYDKRKNRIYAIDELVDHKVSLKRTADFVRKNKYESARIIADSSEPRSIDALKLEHGINRIEGAKKGPDSVEHGERWLDELDAIVIDPLRTPNIAREFENIDYQTDKNGDPIPRLEDKDNHTIDATRYAFERDMKKGGVSLWG | soluble |
